Some targets named below: HLA-A*02:01; HLA-A*02:02; HLA-A*02:03; HLA-A*02:06; HLA-A*68:02.
Holding throughout (assay): IEDB peptide-MHC binding, purified MHC/competitive/radioactivity; ≥ and ≤ were set here for values at or beyond the usual limits of such assays
The mark [1] stands for this setting: source organism: Influenza A virus.
[2] abbreviates: source organism: Vaccinia virus WR.
The mark [3] stands for this setting: source organism: Hepacivirus hominis.

The IC50 is the midpoint of a concentration-inhibition curve. Turning to FVFTLTVPS, the half-inhibitory concentration (IC50) in the test with HLA-A*02:01 (setting [1]) was 514 nM; in the test with HLA-A*02:02 (setting [1]), 394 nM; with HLA-A*02:03 (setting [1]), 270 nM; with HLA-A*02:06 (setting [1]) it was 18 nM; with HLA-A*68:02 (setting [1]), 25 nM.

As to NLLLLFVTI, the IC50 came out at 201 nM with HLA-A*02:01 (source organism: SARS-CoV1); 436 nM with HLA-A*02:02 (source organism: SARS-CoV1); 1600 nM with HLA-A*02:03 (source organism: SARS-CoV1); 456 nM with HLA-A*02:06 (source organism: SARS-CoV1); 755 nM with HLA-A*68:02 (source organism: SARS-CoV1).

For the sequence IMSMMNITRL, the IC50 in the test with HLA-A*02:01 (setting [2]) is 284 nM; with HLA-A*02:02 (setting [2]) it was 62 nM; with HLA-A*02:03 (setting [2]) it was 106 nM; with HLA-A*02:06 (setting [2]), 585 nM; with HLA-A*68:02 (setting [2]) it was 119 nM.

With NVMGMIGV, the IC50 came out at 1460 nM in the test with HLA-A*02:01 (setting [1]); 1980 nM in the test with HLA-A*02:02 (setting [1]); 512 nM with HLA-A*02:03 (setting [1]); 1250 nM in the test with HLA-A*02:06 (setting [1]); 98 nM with HLA-A*68:02 (setting [1]).

With FMYTKHSML, the IC50 in the test with HLA-A*02:01 (setting [2]) came out at 20 nM; with HLA-A*02:02 (setting [2]), 2.4 nM; with HLA-A*02:03 (setting [2]), 0.39 nM; with HLA-A*02:06 (setting [2]) it was 222 nM; in the test with HLA-A*68:02 (setting [2]) it was 3540 nM.

For ALKAYFTAKI, the IC50 was 1600 nM in the test with HLA-A*02:01 (setting [2]); 194 nM with HLA-A*02:02 (setting [2]); 77 nM with HLA-A*02:03 (setting [2]); 2780 nM with HLA-A*02:06 (setting [2]); 4110 nM with HLA-A*68:02 (setting [2]).

For YIMRVMANNV, the IC50 with HLA-A*02:01 (setting [2]) was found to be 49 nM; with HLA-A*02:02 (setting [2]), 23 nM; with HLA-A*02:03 (setting [2]), 2 nM; with HLA-A*02:06 (setting [2]) it was 14 nM; in the test with HLA-A*68:02 (setting [2]) it was 42 nM.

As to TICLKNEGV, the IC50 was found to be 547 nM with HLA-A*02:01 (setting [2]); 494 nM in the test with HLA-A*02:02 (setting [2]); 120 nM in the test with HLA-A*02:03 (setting [2]); 311 nM with HLA-A*02:06 (setting [2]); 5.8 nM in the test with HLA-A*68:02 (setting [2]).

On to ILRNYLRLYI, for which the IC50 with HLA-A*02:01 (setting [2]) came to 1 nM; with HLA-A*02:02 (setting [2]), 0.39 nM; in the test with HLA-A*02:03 (setting [2]) it was 0.9 nM; in the test with HLA-A*02:06 (setting [2]), 65 nM; with HLA-A*68:02 (setting [2]), 2650 nM.

For the sequence KAKQLCYCPA, the half-inhibitory concentration (IC50) with HLA-A*02:01 (setting [2]) was determined as 1500 nM; with HLA-A*02:02 (setting [2]) it was 308 nM; with HLA-A*02:03 (setting [2]) it was 188 nM; with HLA-A*02:06 (setting [2]), 339 nM; with HLA-A*68:02 (setting [2]), 2460 nM.

In the case of WSYNAELLVA, the IC50 with HLA-A*02:01 (setting [1]) amounted to 256 nM; with HLA-A*02:02 (setting [1]) it was 242 nM; with HLA-A*02:03 (setting [1]), 14 nM; with HLA-A*02:06 (setting [1]) it was 15 nM; with HLA-A*68:02 (setting [1]) it was 1620 nM.

On to AVLSEYETMV, for which the IC50 is 9.7 nM with HLA-A*02:01 (setting [2]); 0.76 nM with HLA-A*02:02 (setting [2]); 1.5 nM with HLA-A*02:03 (setting [2]); 24 nM with HLA-A*02:06 (setting [2]); 1770 nM in the test with HLA-A*68:02 (setting [2]).

As to LIQDWIPPL, the IC50 with HLA-A*02:01 (setting [3]) was 97 nM; in the test with HLA-A*02:02 (setting [3]) it was 110 nM; with HLA-A*02:03 (setting [3]), 177 nM; in the test with HLA-A*02:06 (setting [3]), 54 nM; with HLA-A*68:02 (setting [3]) it was 1420 nM.

For the sequence IIAVFDSKL, the IC50 with HLA-A*02:01 (setting [2]) came to 1760 nM; with HLA-A*02:02 (setting [2]), 44 nM; with HLA-A*02:03 (setting [2]) it was 107 nM; in the test with HLA-A*02:06 (setting [2]), 99 nM; with HLA-A*68:02 (setting [2]), 2320 nM.

On to ILQMREIIT, for which the IC50 is 380 nM in the test with HLA-A*02:01 (setting [2]); 4100 nM in the test with HLA-A*02:02 (setting [2]); 1340 nM with HLA-A*02:03 (setting [2]); 1230 nM in the test with HLA-A*02:06 (setting [2]); 1160 nM in the test with HLA-A*68:02 (setting [2]).

Consider MQALQLLLEV, for which the 50% inhibitory concentration (IC50) with HLA-A*02:01 (setting [1]) was 67 nM; with HLA-A*02:02 (setting [1]), 147 nM; with HLA-A*02:03 (setting [1]), 13 nM; with HLA-A*02:06 (setting [1]), 48 nM; with HLA-A*68:02 (setting [1]), 615 nM.

For ITDNGPMPYM, the IC50 with HLA-A*02:01 (setting [2]) stood at 473 nM; in the test with HLA-A*02:02 (setting [2]), 828 nM; with HLA-A*02:03 (setting [2]), 1180 nM; with HLA-A*02:06 (setting [2]) it was 303 nM; with HLA-A*68:02 (setting [2]) it was 473 nM.

For the sequence FVATFRDMLL, the IC50 with HLA-A*02:01 (setting [2]) turned out to be 16 nM; with HLA-A*02:02 (setting [2]) it was 0.7 nM; with HLA-A*02:03 (setting [2]) it was 18 nM; with HLA-A*02:06 (setting [2]) it was 4.4 nM; with HLA-A*68:02 (setting [2]) it was 409 nM.

For LLTDTIESA, the IC50 in the test with HLA-A*02:01 (setting [2]) stood at 25 nM; in the test with HLA-A*02:02 (setting [2]) it was 17 nM; with HLA-A*02:03 (setting [2]), 11 nM; with HLA-A*02:06 (setting [2]), 5.9 nM; in the test with HLA-A*68:02 (setting [2]) it was 1240 nM.

For NLFDIPLLT, the IC50 is 10 nM with HLA-A*02:01 (setting [2]); 135 nM with HLA-A*02:02 (setting [2]); 36 nM with HLA-A*02:03 (setting [2]); 1540 nM with HLA-A*02:06 (setting [2]); 2890 nM in the test with HLA-A*68:02 (setting [2]).

Regarding ILATLNTLIT, the IC50 with HLA-A*02:01 (setting [2]) was found to be 443 nM; with HLA-A*02:02 (setting [2]) it was 7 nM; in the test with HLA-A*02:03 (setting [2]), 12 nM; with HLA-A*02:06 (setting [2]), 629 nM; with HLA-A*68:02 (setting [2]), 1860 nM.

Turning to KQYDSTDFKM, the IC50 with HLA-A*02:01 (setting [2]) came to 309 nM; with HLA-A*02:02 (setting [2]) it was 8.4 nM; with HLA-A*02:03 (setting [2]), 3280 nM; in the test with HLA-A*02:06 (setting [2]), 107 nM; with HLA-A*68:02 (setting [2]) it was 3540 nM.

On to IVILFIMFM, for which the IC50 came to 576 nM with HLA-A*02:01 (setting [2]); 1860 nM with HLA-A*02:02 (setting [2]); 1680 nM with HLA-A*02:03 (setting [2]); 741 nM with HLA-A*02:06 (setting [2]); 667 nM with HLA-A*68:02 (setting [2]).

The values above are taken from the Immune Epitope Database (IEDB).
